# From patent US20240092934A1 (FAMEWAVE, published 2024)
# T1: recombinant human CEACAM-1 (R&D Systems cat. no. 2244-CM-050) (human, UniProt P13688 35-428)
# T1 construct: Coated on the ELISA plate at 0.5 ug/ml
# T1 sequence (looked up): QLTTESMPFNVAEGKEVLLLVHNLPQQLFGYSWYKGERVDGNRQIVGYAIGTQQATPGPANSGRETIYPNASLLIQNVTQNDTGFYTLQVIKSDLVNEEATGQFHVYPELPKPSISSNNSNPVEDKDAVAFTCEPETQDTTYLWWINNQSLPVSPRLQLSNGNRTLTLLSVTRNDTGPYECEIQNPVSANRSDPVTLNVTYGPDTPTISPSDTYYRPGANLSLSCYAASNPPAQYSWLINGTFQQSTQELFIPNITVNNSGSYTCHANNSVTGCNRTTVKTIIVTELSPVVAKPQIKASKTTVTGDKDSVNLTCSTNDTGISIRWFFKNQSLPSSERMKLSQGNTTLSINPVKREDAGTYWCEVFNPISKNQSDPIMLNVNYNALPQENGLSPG
# Molecular target: T1, recombinant human CEACAM-1 (R&D Systems …)
# Experiment: competition ELISA on coated recombinant human CEACAM-1; competitor biotinylated chimeric CM-10 IgG1
# Text: The binding of the biotinylated antibody was detected with streptavidin-HRP (Sigma cat. no. S5512) and TMB substrate (Invitrogen cat. no. 00-2023). The reaction was stopped with 3M HC1, absorbance read at 450 nm on a Dynex Technologies MRX TC II plate reader and the binding curves plotted.
IC50,IC50 normalized to CM-10,Binder
0.74 µg/mL,1.23 ratio to IC50 of chimeric CM-10,"humanized anti-CEACAM-1 variant VH5/VK1, IgG4 (S241P) (antibody, V domains shown, Tested as human IgG4 (S241P) / kappa antibody; only the variable regions are tied to this variant) VH: QVQLVQSGAEVKKPGASVKVSCKASGYAFTNNLIEWVRQAPGQGLEWIGVINPGSGDTNYNEKFKGRVTMTADKSISTAYMELSRLRSDDTAVYYCARGDYYGGFAVDYWGQGTTVTVSS VL: DIQMTQSPSSLSASVGDRVTITCRTSQDIGNYLNWYQQKPGKAVKLLIYYTSRLHSGVPSRFSGSGSGTDYTLTISSLQQEDIATYFCQQGKSLPRTFGGGTKVEIK"
0.7 µg/mL,1.16 ratio to IC50 of chimeric CM-10,"humanized anti-CEACAM-1 variant VH5/VK2, IgG4 (S241P) (antibody, V domains shown, Tested as human IgG4 (S241P) / kappa antibody; only the variable regions are tied to this variant) VH: QVQLVQSGAEVKKPGASVKVSCKASGYAFTNNLIEWVRQAPGQGLEWIGVINPGSGDTNYNEKFKGRVTMTADKSISTAYMELSRLRSDDTAVYYCARGDYYGGFAVDYWGQGTTVTVSS VL: DIQMTQSPSSLSASVGDRVTITCRTSQDIGNYLNWYQQKPGKAVKLLIYYTSRLHSGVPSRFSGSGSGTDYTLTISSLQPEDIATYFCQQGKSLPRTFGGGTKVEIK"
0.72 µg/mL,1.09 ratio to IC50 of chimeric CM-10,"humanized anti-CEACAM-1 variant VH5/VK2, IgG1 (antibody, V domains shown, Tested as human IgG1 / kappa antibody; only the variable regions are tied to this variant) VH: QVQLVQSGAEVKKPGASVKVSCKASGYAFTNNLIEWVRQAPGQGLEWIGVINPGSGDTNYNEKFKGRVTMTADKSISTAYMELSRLRSDDTAVYYCARGDYYGGFAVDYWGQGTTVTVSS VL: DIQMTQSPSSLSASVGDRVTITCRTSQDIGNYLNWYQQKPGKAVKLLIYYTSRLHSGVPSRFSGSGSGTDYTLTISSLQPEDIATYFCQQGKSLPRTFGGGTKVEIK"
0.77 µg/mL,1.17 ratio to IC50 of chimeric CM-10,"humanized anti-CEACAM-1 variant VH5/VK1, IgG1 (antibody, V domains shown, Tested as human IgG1 / kappa antibody; only the variable regions are tied to this variant) VH: QVQLVQSGAEVKKPGASVKVSCKASGYAFTNNLIEWVRQAPGQGLEWIGVINPGSGDTNYNEKFKGRVTMTADKSISTAYMELSRLRSDDTAVYYCARGDYYGGFAVDYWGQGTTVTVSS VL: DIQMTQSPSSLSASVGDRVTITCRTSQDIGNYLNWYQQKPGKAVKLLIYYTSRLHSGVPSRFSGSGSGTDYTLTISSLQQEDIATYFCQQGKSLPRTFGGGTKVEIK"

# Continued, binder first:
Binder,IC50,IC50 normalized to CM-10
"humanized anti-CEACAM-1 variant VH4/VK2, IgG1 (antibody, V domains shown, Tested as human IgG1 / kappa antibody; only the variable regions are tied to this variant) VH: QVQLVQSGAEVKKPGASVKVSCKASGYAFTNNLIEWVRQAPGQGLEWIGVINPGSGDTNYNEKFKGRATLTADKSISTAYMELSRLRSDDTAVYYCARGDYYGGFAVDYWGQGTTVTVSS VL: DIQMTQSPSSLSASVGDRVTITCRTSQDIGNYLNWYQQKPGKAVKLLIYYTSRLHSGVPSRFSGSGSGTDYTLTISSLQPEDIATYFCQQGKSLPRTFGGGTKVEIK",0.78 µg/mL,1.24 ratio to IC50 of chimeric CM-10
"humanized anti-CEACAM-1 variant VH4/VK3, IgG1 (antibody, V domains shown, Tested as human IgG1 / kappa antibody; only the variable regions are tied to this variant) VH: QVQLVQSGAEVKKPGASVKVSCKASGYAFTNNLIEWVRQAPGQGLEWIGVINPGSGDTNYNEKFKGRATLTADKSISTAYMELSRLRSDDTAVYYCARGDYYGGFAVDYWGQGTTVTVSS VL: DIQMTQSPSSLSASVGDRVTITCRTSQDIGNYLNWYQQKPGKAVKLLIYYTSRLHSGVPSRFSGSGSGTDYTFTISSLQPEDIATYFCQQGKSLPRTFGGGTKVEIK",0.99 µg/mL,1.56 ratio to IC50 of chimeric CM-10
"humanized anti-CEACAM-1 variant VH4/VK2, IgG4 (S241P) (antibody, V domains shown, Tested as human IgG4 (S241P) / kappa antibody; only the variable regions are tied to this variant) VH: QVQLVQSGAEVKKPGASVKVSCKASGYAFTNNLIEWVRQAPGQGLEWIGVINPGSGDTNYNEKFKGRATLTADKSISTAYMELSRLRSDDTAVYYCARGDYYGGFAVDYWGQGTTVTVSS VL: DIQMTQSPSSLSASVGDRVTITCRTSQDIGNYLNWYQQKPGKAVKLLIYYTSRLHSGVPSRFSGSGSGTDYTLTISSLQPEDIATYFCQQGKSLPRTFGGGTKVEIK",0.69 µg/mL,1.17 ratio to IC50 of chimeric CM-10
"humanized anti-CEACAM-1 variant VH4/VK3, IgG4 (S241P) (antibody, V domains shown, Tested as human IgG4 (S241P) / kappa antibody; only the variable regions are tied to this variant) VH: QVQLVQSGAEVKKPGASVKVSCKASGYAFTNNLIEWVRQAPGQGLEWIGVINPGSGDTNYNEKFKGRATLTADKSISTAYMELSRLRSDDTAVYYCARGDYYGGFAVDYWGQGTTVTVSS VL: DIQMTQSPSSLSASVGDRVTITCRTSQDIGNYLNWYQQKPGKAVKLLIYYTSRLHSGVPSRFSGSGSGTDYTFTISSLQPEDIATYFCQQGKSLPRTFGGGTKVEIK",0.63 µg/mL,1.06 ratio to IC50 of chimeric CM-10
